The values below come from PMC9218516, “SifR is an Rrf2-family quinone sensor associated with catechol iron uptake in Streptococcus pneumoniae D39” (The Journal of Biological Chemistry, 2022).

For data set [1], the target named is Streptococcus pneumoniae SifR C84S/C102S (Streptococcus pneumoniae D39). Description: SEC.
Data set [2] addresses Streptococcus pneumoniae SifR (streptococcal IscR-like family transcriptional repressor), WT (Streptococcus pneumoniae D39). Description: SEC.
The target in data set [3] is Streptococcus pneumoniae SifR C84S (Streptococcus pneumoniae D39). Description: SEC.
Data set [4] deals with T1, CatE (SpCatE, SPD_0072) (Streptococcus pneumoniae, UniProt A0A0H2ZQ49).
T1 construct: pHis.parallel1, E. coli BL21(DE3); His6 tag removed with TEV protease; Fe(II)-reconstituted
Description: UV-Vis at […] nm and MS of ring-cleavage product. The data set is classed as biochemical. The following applies: 5 uM Fe(II)-CatE, 100 uM substrate, ambient O2, pH 7.4, room temperature.

The target of data set [5] is Streptococcus pneumoniae SifR C102S (Streptococcus pneumoniae D39). Description: SEC.
The target in another data set is T2, SifR (SpSifR, SPD_1448) (Streptococcus pneumoniae, UniProt A0A0H2ZNG7).
T2 construct: pHis.parallel1, E. coli BL21(DE3); His6 tag removed with TEV protease; homodimer; about 16 kDa protomer (BQ2-SifR expected 16,227 Da)
Description: LC-ESI-MS and tandem LC-MS/MS adduct; fluorescence anisotropy DNA release. The data set is classed as binding. Particulars: covalent at C102, slower than BQ, mainly monoadduct; 20-fold excess, 1 h, pH 7.5. A general note: In fluorescence polarisation assays a small probe gives low polarisation when free and higher when bound to something large.

Data set [6] has as its target T1, CatE (SpCatE, SPD_0072). Description: UV-Vis and MS of ring-cleavage product. The data set is classed as biochemical. The following applies: 5 uM Fe(II)-CatE, 100 uM substrate, ambient O2, pH 7.4, room temperature.
A further data set addresses T3, YhdA (SpYhdA, SPD_1375) (Streptococcus pneumoniae, UniProt A0A0H2ZRU6).
T3 construct: pHis.parallel1, E. coli BL21(DE3); His6 tag removed with TEV protease
Description: ferric reductase, ferrozine capture at […] nm. Particulars: 10 uM FMN, 100 uM Fe(III)-NTA, 100 uM NADH or NADPH, pH 7.5, 25 C. The data set is classed as biochemical.

The target in data set [7] is T4, SifR WT (Streptococcus pneumoniae D39, UniProt A0A0H2ZNG7 1-145). Description: fluorescence anisotropy competition; reduced, 2 mM TCEP; competitor of F-catE; 25 mM Tris-HCl, 150 mM NaCl, 2 mM EDTA, 2 mM TCEP, pH 7.5, 25 C, ~10 nM labeled DNA (Fig S8: 50 mM Tris-HCl, 150 mM NaCl, pH 7.4, 25 C; NMR: 25 mM MES pH 6.5, 150 mM NaCl, 25 C). Particulars: protein: recombinant; tags: His6 removed by TEV; tag-free; chain copies: 2; blunt.

The target of data set [8] is T4, SifR WT. Description: fluorescence anisotropy; reduced, 2 mM TCEP; 25 mM Tris-HCl, 150 mM NaCl, 2 mM EDTA, 2 mM TCEP, pH 7.5, 25 C, ~10 nM labeled DNA (Fig S8: 50 mM Tris-HCl, 150 mM NaCl, pH 7.4, 25 C; NMR: 25 mM MES pH 6.5, 150 mM NaCl, 25 C). The following applies: protein: recombinant; tags: His6 removed by TEV; tag-free; chain copies: 2; label: 5'-fluorescein; blunt.

The next data set addresses SifR C84S (Streptococcus pneumoniae D39, UniProt A0A0H2ZNG7 1-145, C84S). The data set is described as above. Particulars: protein: recombinant; tags: His6 removed by TEV; tag-free; chain copies: 2; label: 5'-fluorescein; blunt.
The target in the next data set is 15N-SifR WT (Streptococcus pneumoniae D39, UniProt A0A0H2ZNG7 1-145). Description: NMR (1H,15N-TROSY); reduced; pH 6.5; 25 mM Tris-HCl, 150 mM NaCl, 2 mM EDTA, 2 mM TCEP, pH 7.5, 25 C, ~10 nM labeled DNA (Fig S8: 50 mM Tris-HCl, 150 mM NaCl, pH 7.4, 25 C; NMR: 25 mM MES pH 6.5, 150 mM NaCl, 25 C). Particulars: protein: recombinant; tags: His6 removed by TEV; 15N-labeled; chain copies: 2.

In data set [1], “Streptococcus pneumoniae SifR C84S/C102S (natural protein)” had a stoichiometry N of 2. “Streptococcus pneumoniae SifR (streptococcal IscR-like family transcriptional repressor), WT (natural protein)”: the stoichiometry N in data set [2] amounted to 2. For the molecule “Streptococcus pneumoniae SifR C84S (natural protein)”, the stoichiometry N in [3] is 2. Turning to `Oc1ccccc1O` [catechol], on CatE (SpCatE, SPD_0072) [4], the “UV-Vis at 375 nm and MS of ring-cleavage product” value was “we first monitored its activity using UV–Vis spectroscopy against freshly prepared catechol”. In [5], “Streptococcus pneumoniae SifR C102S (natural protein)” yielded a stoichiometry N of 2. With `CN1CC(O)C2=CC(=O)C(=O)C=C21` (stereo not drawn) [Adc, adrenochrome], the “LC-ESI-MS and tandem LC-MS/MS adduct; fluorescence anisotropy DNA release” value on SifR (SpSifR, SPD_1448) is given as “Adc reacts more slowly to yield some monoadducted product”. With `NC[C@H](O)c1ccc(O)c(O)c1` [NE, norepinephrine], on CatE (SpCatE, SPD_0072) [6], the “UV-Vis and MS of ring-cleavage product” value was “SpCatE can utilize each of these compounds as substrates”. As for `Cc1cc2nc3c(=O)[nH]c(=O)nc-3n(C[C@H](O)[C@H](O)[C@H](O)COP(=O)(O)O)c2cc1C` [FMN], the “ferric reductase, ferrozine capture at 562 nm” value at YhdA (SpYhdA, SPD_1375) is “SpYhdA has significant activity and prefers FMN over FAD”.

B1: yhdA O/P (dsDNA)
DNA 1: GTTTTGTTGTAATATATTTTATAACAACGAG
DNA 2: CTCGTTGTTATAAAATATATTACAACAAAAC
With B1, the Ka with SifR WT [7] was 0.23 ± 0.04 10^8 M-1.

B2: F-catE O/P (dsDNA)
DNA 1: TATAGTTGTAATAATAATAATTACAACGAG
DNA 2: CTCGTTGTAATTATTATTATTACAACTATA
modifications: fluorescein-dT at 5' position 1 of strand 1
As for B2, the Ka in the data set with SifR WT [8] was 1 ± 0.2 10^8 M-1; with SifR C84S, 4.8 ± 1.5 10^8 M-1.

B3: fre O/P (dsDNA)
DNA 1: GATAAAATGTAACAAATTTATTTACAACAAATC
DNA 2: GATTTGTTGTAAATAAATTTGTTACATTTTATC
Take B3: the Ka in the data set with SifR WT [7] was 0.25 ± 0.05 10^8 M-1.

B4: fre operator 23 bp (dsDNA)
DNA 1: AATGTAACAAATTTATTTACAAC
DNA 2: GTTGTAAATAAATTTGTTACATT
Regarding B4, the binding result with 15N-SifR WT was “binds”.

B5: ywnB O/P (dsDNA)
DNA 1: CAATTGCTGTAACTAAAATAATTACAACAAG
DNA 2: CTTGTTGTAATTATTTTAGTTACAGCAATTG
As for B5, the Ka with SifR WT [7] was 3.2 ± 0.4 10^8 M-1.

B6: trxB O/P (dsDNA)
DNA 1: GAAAGAGTTAGAATAAAGATAGTTACAACAAG
DNA 2: CTTGTTGTAACTATCTTTATTCTAACTCTTTC
As for B6, the Ka with SifR WT [7] was 0.13 ± 0.04 10^8 M-1.

By stoichiometry N is commonly meant the number of molecules, sites or subunits per partner or assembly.
